# Results reported in IntAct's records for PubMed 7657594.
# B1: Vascular endothelial growth factor receptor 1 (Homo sapiens), P17948 (parent)
# chain: MVSYWDTGVLLCALLSCLLLTGSSSGSKLKDPELSLKGTQHIMQAGQTLHLQCRGEAAHKWSLPEMVSKESERLSITKSACGRNGKQFCSTLTLNTAQANHTGFYSCKYLAVPTSKKKETESAIYIFISDTGRPFVEMYSEIPEIIHMTEGRELVIPCRVTSPNITVTLKKFPLDTLIPDGKRIIWDSRKGFIISNATYKEIGLLTCEATVNGHLYKTNYLTHRQTNTIIDVQISTPRPVKLLRGHTLVLNCTATTPLNTRVQMTWSYPDEKNKRASVRRRIDQSNSHANIFYSVLTIDKMQNKDKGLYTCRVRSGPSFKSVNTSVHIYDKAFITVKHRKQQVLETVAGKRSYRLSMKVKAFPSPEVVWLKDGLPATEKSARYLTRGYSLIIKDVTEEDAGNYTILLSIKQSNVFKNLTATLIVNVKPQIYEKAVSSFPDPALYPLGSRQILTCTAYGIPQPTIKWFWHPCNHNHSEARCDFCSNNEESFILDADSNMGNRIESITQRMAIIEGKNKMASTLVVADSRISGIYICIASNKVGTVGRNISFYITDVPNGFHVNLEKMPTEGEDLKLSCTVNKFLYRDVTWILLRTVNNRTMHYSISKQKMAITKEHSITLNLTIMNVSLQDSGTYACRARNVYTGEEILQKKEITIRDQEAPYLLRNLSDHTVAISSSTTLDCHANGVPEPQITWFKNNHKIQQEPGIILGPGSSTLFIERVTEEDEGVYHCKATNQKGSVESSAYLTVQGTSDKSNLELITLTCTCVAATLFWLLLTLFIRKMKRSSSEIKTDYLSIIMDPDEVPLDEQCERLPYDASKWEFARERLKLGKSLGRGAFGKVVQASAFGIKKSPTCRTVAVKMLKEGATASEYKALMTELKILTHIGHHLNVVNLLGACTKQGGPLMVIVEYCKYGNLSNYLKSKRDLFFLNKDAALHMEPKKEKMEPGLEQGKKPRLDSVTSSESFASSGFQEDKSLSDVEEEEDSDGFYKEPITMEDLISYSFQVARGMEFLSSRKCIHRDLAARNILLSENNVVKICDFGLARDIYKNPDYVRKGDTRLPLKWMAPESIFDKIYSTKSDVWSYGVLLWEIFSLGGSPYPGVQMDEDFCSRLREGMRMRAPEYSTPEIYQIMLDCWHRDPKERPRFAELVEKLGDLLQANVQQDGKDYIPINAILTGNSGFTYSTPAFSEDFFKESISAPKFNSGSSDDVRYVNAFKFMSLERIKTFEELLPNATSMFDDYQGDSSTLLASPMLKRFTWTDSKPKASLKIDLRVTSKSKESGLSDVSRPSFCHSSCGHVSEGKRRFTYDHAELERKIACCSPPPDYNSVVLYSTPPI
# Variants of: B1
# Details: with p85a_human PIK3R1, P27986
# p85a_human PIK3R1, P27986, sequence (P27986 whole entry): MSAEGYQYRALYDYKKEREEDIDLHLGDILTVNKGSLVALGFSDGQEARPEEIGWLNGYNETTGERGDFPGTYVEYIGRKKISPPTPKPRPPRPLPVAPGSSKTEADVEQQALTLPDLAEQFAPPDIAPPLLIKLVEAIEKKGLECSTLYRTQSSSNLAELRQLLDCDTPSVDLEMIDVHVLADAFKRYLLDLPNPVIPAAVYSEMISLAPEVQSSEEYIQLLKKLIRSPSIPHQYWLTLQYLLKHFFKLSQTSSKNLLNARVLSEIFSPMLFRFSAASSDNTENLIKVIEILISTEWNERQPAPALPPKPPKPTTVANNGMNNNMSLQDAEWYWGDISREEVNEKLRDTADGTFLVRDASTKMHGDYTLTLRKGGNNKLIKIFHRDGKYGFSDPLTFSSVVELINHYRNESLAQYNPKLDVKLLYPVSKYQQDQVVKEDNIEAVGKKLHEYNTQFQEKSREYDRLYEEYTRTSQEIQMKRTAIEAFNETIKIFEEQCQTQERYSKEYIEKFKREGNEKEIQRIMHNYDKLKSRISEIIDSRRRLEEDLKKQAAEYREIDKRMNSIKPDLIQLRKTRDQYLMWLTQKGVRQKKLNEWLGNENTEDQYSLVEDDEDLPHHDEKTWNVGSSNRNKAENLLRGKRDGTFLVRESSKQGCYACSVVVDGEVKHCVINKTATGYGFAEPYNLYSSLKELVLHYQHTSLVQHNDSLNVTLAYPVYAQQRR
row,effect of a mutation on the interaction,Variant
1,disrupting interaction,Y1213F
2,with no effect,Y1130F

# Variants of: B1
# Details: with p85a_human PIK3R1, P27986
# Remark: another data set of the same source
row,Variant,effect of a mutation on the interaction
1,K861A,disrupting interaction
2,Y1124F;Y1184F;Y1333F,with no effect
3,Y1130F,decreasing interaction

# Continued, values first:
row,effect of a mutation on the interaction,Variant
1,with no effect,Y1309F
2,with no effect,Y1327F
